B1: Protein S100-G, residues 1 to 79; numbered along this chain, P02633 (parent)
chain: MSAKKSPEELKGIFEKYAAKEGDPNQLSKEELKLLLQTEFPSLLKGPSTLDELFEELDKNGDGEVSFEEFQVLVKKISQ

± gives the uncertainty stated by the source.

The variants in the series derive from B1. The series is described as follows: abundance fitness (aPCA) (normalised: wild type 0, dead -1); higher = more abundant; growth selection in yeast, the domain comes from the species named. As to conditions: Bos taurus.
With MSAKKSPEELKGIAEKYAAKEGDPNQLSKEELKLLLQTEFPSLLKGPSTLDELFEELDKNGDGEVSFEEFQVLVKKISQ [F14A], the abundance fitness was -0.98 ± 0.072.

Consider MSAKKSPEELKGIIEKYAAKEGDPNQLSKEELKLLLQTEFPSLLKGPSTLDELFEELDKNGDGEVSFEEFQVLVKKISQ [F14I], for which the abundance fitness is -0.504 ± 0.086.

Turning to MSAKKSPEELKGIYEKYAAKEGDPNQLSKEELKLLLQTEFPSLLKGPSTLDELFEELDKNGDGEVSFEEFQVLVKKISQ [F14Y], the abundance fitness is 0.028 ± 0.086.

Regarding MSAKKSPEELKGFFEKYAAKEGDPNQLSKEELKLLLQTEFPSLLKGPSTLDELFEELDKNGDGEVSFEEFQVLVKKISQ [I13F], the abundance fitness was -0.201 ± 0.081.

Turning to MSAKKSPEELKGKFEKYAAKEGDPNQLSKEELKLLLQTEFPSLLKGPSTLDELFEELDKNGDGEVSFEEFQVLVKKISQ [I13K], the abundance fitness is -0.173 ± 0.092.

MSAKKSPEELKGTFEKYAAKEGDPNQLSKEELKLLLQTEFPSLLKGPSTLDELFEELDKNGDGEVSFEEFQVLVKKISQ [I13T]: the abundance fitness is -0.17 ± 0.079.

On to MSAKKSPEELKGMFEKYAAKEGDPNQLSKEELKLLLQTEFPSLLKGPSTLDELFEELDKNGDGEVSFEEFQVLVKKISQ [I13M], for which the abundance fitness was determined as 0.053 ± 0.091.

In the case of MSAKKSPEELKGNFEKYAAKEGDPNQLSKEELKLLLQTEFPSLLKGPSTLDELFEELDKNGDGEVSFEEFQVLVKKISQ [I13N], the abundance fitness was -0.631 ± 0.084.

Regarding MSAKKSPEELKGLFEKYAAKEGDPNQLSKEELKLLLQTEFPSLLKGPSTLDELFEELDKNGDGEVSFEEFQVLVKKISQ [I13L], the abundance fitness was -0.03 ± 0.066.

For the variant MSAKKSPEELKGHFEKYAAKEGDPNQLSKEELKLLLQTEFPSLLKGPSTLDELFEELDKNGDGEVSFEEFQVLVKKISQ [I13H], the abundance fitness was -0.287 ± 0.08.

Take MSAKKSPEELKGPFEKYAAKEGDPNQLSKEELKLLLQTEFPSLLKGPSTLDELFEELDKNGDGEVSFEEFQVLVKKISQ [I13P]: the abundance fitness was -0.424 ± 0.08.

For MSAKKSPEELKGRFEKYAAKEGDPNQLSKEELKLLLQTEFPSLLKGPSTLDELFEELDKNGDGEVSFEEFQVLVKKISQ [I13R], the abundance fitness is -0.409 ± 0.068.

For MSAKKSPEELKGWFEKYAAKEGDPNQLSKEELKLLLQTEFPSLLKGPSTLDELFEELDKNGDGEVSFEEFQVLVKKISQ [I13W], the abundance fitness is -0.231 ± 0.089.

As for MSAKKSPEELKGVFEKYAAKEGDPNQLSKEELKLLLQTEFPSLLKGPSTLDELFEELDKNGDGEVSFEEFQVLVKKISQ [I13V], the abundance fitness was -0.123 ± 0.071.

Turning to MSAKKSPEELKGEFEKYAAKEGDPNQLSKEELKLLLQTEFPSLLKGPSTLDELFEELDKNGDGEVSFEEFQVLVKKISQ [I13E], the abundance fitness is -0.386 ± 0.092.

Regarding MSAKKSPEELKGQFEKYAAKEGDPNQLSKEELKLLLQTEFPSLLKGPSTLDELFEELDKNGDGEVSFEEFQVLVKKISQ [I13Q], the abundance fitness was -0.219 ± 0.083.

Turning to MSAKKSPEELKGGFEKYAAKEGDPNQLSKEELKLLLQTEFPSLLKGPSTLDELFEELDKNGDGEVSFEEFQVLVKKISQ [I13G], the abundance fitness was -0.959 ± 0.079.

With MSAKKSPEELKGSFEKYAAKEGDPNQLSKEELKLLLQTEFPSLLKGPSTLDELFEELDKNGDGEVSFEEFQVLVKKISQ [I13S], the abundance fitness was -0.26 ± 0.068.

Consider MSAKKSPEELKGIFYKYAAKEGDPNQLSKEELKLLLQTEFPSLLKGPSTLDELFEELDKNGDGEVSFEEFQVLVKKISQ [E15Y], for which the abundance fitness is 0.077 ± 0.086.

With MSAKKSPEELKGIFNKYAAKEGDPNQLSKEELKLLLQTEFPSLLKGPSTLDELFEELDKNGDGEVSFEEFQVLVKKISQ [E15N], the abundance fitness was -0.042 ± 0.083.

As to MSAKKSPEELKGIFSKYAAKEGDPNQLSKEELKLLLQTEFPSLLKGPSTLDELFEELDKNGDGEVSFEEFQVLVKKISQ [E15S], the abundance fitness is -0.009 ± 0.065.

In the case of MSAKKSPEELKGIFCKYAAKEGDPNQLSKEELKLLLQTEFPSLLKGPSTLDELFEELDKNGDGEVSFEEFQVLVKKISQ [E15C], the abundance fitness was -0.152 ± 0.093.

As to MSAKKSPEELKGIFAKYAAKEGDPNQLSKEELKLLLQTEFPSLLKGPSTLDELFEELDKNGDGEVSFEEFQVLVKKISQ [E15A], the abundance fitness was -0.039 ± 0.069.

In the case of MSAKKSPEELKGIFIKYAAKEGDPNQLSKEELKLLLQTEFPSLLKGPSTLDELFEELDKNGDGEVSFEEFQVLVKKISQ [E15I], the abundance fitness stood at 0.078 ± 0.081.

Turning to MSAKKSPEELKGIFTKYAAKEGDPNQLSKEELKLLLQTEFPSLLKGPSTLDELFEELDKNGDGEVSFEEFQVLVKKISQ [E15T], the abundance fitness turned out to be 0.065 ± 0.071.

For MSAKKSPEELKGIFPKYAAKEGDPNQLSKEELKLLLQTEFPSLLKGPSTLDELFEELDKNGDGEVSFEEFQVLVKKISQ [E15P], the abundance fitness is -0.722 ± 0.08.

For MSAKKSPEELKGIFVKYAAKEGDPNQLSKEELKLLLQTEFPSLLKGPSTLDELFEELDKNGDGEVSFEEFQVLVKKISQ [E15V], the abundance fitness was -0.044 ± 0.071.

In the case of MSAKKSPEELKGIFFKYAAKEGDPNQLSKEELKLLLQTEFPSLLKGPSTLDELFEELDKNGDGEVSFEEFQVLVKKISQ [E15F], the abundance fitness came out at 0.016 ± 0.079.

Regarding MSAKKSPEELKGIFMKYAAKEGDPNQLSKEELKLLLQTEFPSLLKGPSTLDELFEELDKNGDGEVSFEEFQVLVKKISQ [E15M], the abundance fitness is 0.058 ± 0.082.

On to MSAKKSPEELKGIFKKYAAKEGDPNQLSKEELKLLLQTEFPSLLKGPSTLDELFEELDKNGDGEVSFEEFQVLVKKISQ [E15K], for which the abundance fitness is -0.031 ± 0.087.

For the variant MSAKKSPEELKGIFWKYAAKEGDPNQLSKEELKLLLQTEFPSLLKGPSTLDELFEELDKNGDGEVSFEEFQVLVKKISQ [E15W], the abundance fitness was -0.048 ± 0.093.

Regarding MSAKKSPEELKGIFHKYAAKEGDPNQLSKEELKLLLQTEFPSLLKGPSTLDELFEELDKNGDGEVSFEEFQVLVKKISQ [E15H], the abundance fitness is 0.018 ± 0.088.

With MSAKKSPEELKGIFDKYAAKEGDPNQLSKEELKLLLQTEFPSLLKGPSTLDELFEELDKNGDGEVSFEEFQVLVKKISQ [E15D], the abundance fitness is -0.047 ± 0.093.

Regarding MSAKKSPEELKGIFGKYAAKEGDPNQLSKEELKLLLQTEFPSLLKGPSTLDELFEELDKNGDGEVSFEEFQVLVKKISQ [E15G], the abundance fitness is -0.062 ± 0.072.

In the case of MSAKKSPEELKGIFQKYAAKEGDPNQLSKEELKLLLQTEFPSLLKGPSTLDELFEELDKNGDGEVSFEEFQVLVKKISQ [E15Q], the abundance fitness was 0.024 ± 0.084.

For the origin of these results see the Human Domainome abundance scans (Beltran et al. 2025).
